These results are taken from US20220017636A1 (Amgen, published 2022).

Where a chain is given by its changes, count along the chain named.

First the molecules themselves.
B1: 18181-B8 (scFv)
scFv: EVQLLESGPGLVKPSQTLSLTCTVSGGSISSGGYYWSWIRQHPGKGLEWIGYISHSGSTYYNPSLKSRVTISVDTSKNQFSLNLTSVTAADTAVYYCAREKMWFGVLNYYYGMDVWGQGTTVTVSSGGGGSGGGGSGGGGSELVMTQTPLSLPVTPGEPASISCRSSQSLLHRNGYNYLDWYLQKPGQSPQLLIYLGSNRASGVPDRFIGSGSGTDFTLEISRVEAEDVGVYYCMQALQTPSFGQGTKVEIK
notes: scFv in bacterial lysate, detected with anti-Flag M2
B2: 18181-G10 (scFv)
scFv: EVQLLESGPGLVKPSQTLSLTCTVSGDSISSNPYYWSWIRQLPGKGLEWIGYISYSGSTFYNPSLKSRVTISVDTSKNQFSLNLTSVTAADTAVYYCARDRLWFGVLNYYYGMDVWGLGTTVTVSSGGGGSGGGGSGGGGSELVMTQSPLSLPVTPGEPASISCRSSQSLLHSTGYNYVDWYLQKPGQSPQLLIYLGSNRASGVPDRFSGSGSGTDFTLKISRVEAEDVGFYYCMQALQTPRTFGQGTKVEIK
notes: as for B1
B3: 18181-C9 (scFv)
scFv: B2 scFv with M145L, S173R, T174N, V179L, F231V, A237G, R242F, Q246P
notes: as for B1
B4: 18181-E2 (scFv)
scFv: B2 scFv with L42H, Y55H, F60Y, T174S, V179L, R223K, F231V, E251D
notes: as for B1
B5: 18089-B2 (scFv)
scFv: EVQLLESGGGLVQPGGSLRLSCAASGFTFSSYAMSWVRQAPGRGLEWVSTISISGGSTNYADSVKGRFTISRDNSKNTLYLQMNSLRAEDTAVYYCAKDGGSGWFPKLLHYGLDVWGQGTTVTVSSGGGGSGGGGSGGGGSELQMTQSPSSLSASVGDRVTITCQASQDISNYLNWYQQKPGKAPKLLIYAASSLQSGVPSRFSGSGSGTDFTLTISSLQPEDFATYYCQQSYSIPLTFGGGTKVEIK
notes: as for B1
B6: 18179-E1 (scFv)
scFv: EVQLLESGGGLVQPGGSLRLSCAASGFTFSNAWMSWVRQAPGKGLEWVGRIKGNTYGGTTDYAAPVKGRFTISRDDSKNTLYLQMNSLKTEDTAVYYCTTPSYSGSYYNYFSVMDVWGQGTTVTVSSGGGGSGGGGSGGGGSELVMTQSPSSLSASVGDRVTITCRTSQSISSYLNWYQQKPGRAPKLLIFAASSLQGGVPSRFSGSGSGTDFTLTISSLQPEDFATYYCQQTYSMPFTFGPGTKVDIK
notes: as for B1
B7: 18181-F1 (scFv)
scFv: B6 scFv with Q13K, Y82F, M236S, V246L, D247E
notes: as for B1
B8: 18181-G8 (scFv)
scFv: B6 scFv with Y82F, Y103N, R184K, F191Y, G198S, P242G, D247E
notes: as for B1
B9: 18181-F3 (scFv)
scFv: B6 scFv with Y82F, T233S, M236S, D247E
notes: as for B1
B10: 18179-H7 (scFv)
scFv: B6 scFv with G53S, N54K, V145Q, Y178F, R184K, G198S, T233S, M236S, D247E
notes: as for B1
B11: 18181-A6 (scFv)
scFv: B6 scFv with T167A, V246L, D247E
notes: as for B1
B12: 18093-B11 (scFv)
scFv: EVQLLESGGGLVKPGGSLRLSCAASGFTFSDYYMSWIRQAPGKGLEWVSYISKSGSTIYYADSVKGRFTISRDNAKNSLYLQMNSLRAEDTAVYYCATYNYGHFDYWGQGTLVTVSSGGGGSGGGGSGGGGSELVLTQPPSVSVAPGQTARITCGGNNIGSKSVHWYQQKPGQAPVLVVYDDSDRPSGIPERFSGSNSGNTATLTISRVEAGDEADYYCQVWDSSSDHHVVFGGGTKLTVL
notes: as for B1

One experiment deals with T1, DPYSL4 peptide complexed with HLA-A*02:01 on T2 cells (human).
T1 construct: whole, on cells
Briefly: flow cytometry, peptide-loaded T2 cells. (Flow cytometry measures light scatter and fluorescence of single cells or particles in a stream.)
Method: (§1) Binding of pMAGE-HLA scFv constructs, generated from the XenoMouse, on peptide loaded T2 cells was evaluated by flow cytometry.
As for B1, the Signal/background is 1.
In the case of B2, the Signal/background came to 1.
Still for that read-out and setting: next, B3: 0.9.
The molecule B4 returned a Signal/background of 1.
B5 showed a Signal/background of 1.
The molecule B6 came in with a Signal/background of 1.
For B7, the Signal/background was found to be 1.1.
The same measure, in the same setting: next, B8: 1.1.
Same read-out and setting: next, B9: 1.1; B10: 1.
Molecule B11 registered a Signal/background of 1.
The molecule B12 returned a Signal/background of 1.

The next experiment concerns the target T2, MYOF peptide complexed with HLA-A*02:01 on T2 cells (human).
T2 construct: whole, on cells
Briefly: flow cytometry, peptide-loaded T2 cells.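 Also: binding of single-chain Fv antibody constructs, raised in XenoMouse, to peptide-pulsed T2 cells measured by flow cytometry.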
Method: as §1
B1 had a Signal/background of 1.
With B2, the Signal/background was found to be 1.
Regarding B3, the Signal/background was found to be 1.1.
B4 yielded a Signal/background of 1.1.
In the case of B5, the Signal/background worked out at 1.1.
With B6, the Signal/background was 1.
B7 yielded a Signal/background of 1.1.
For B8, the Signal/background is 1.
On to B9, for which the Signal/background worked out at 1.1.
Turning to B10, the Signal/background amounted to 1.1.
As for B11, the Signal/background came to 1.1.
The same measure, in the same setting: next, B12: 1.2.

A further experiment concerns the target T3, SLK peptide complexed with HLA-A*02:01 on T2 cells (human).
T3 construct: whole, on cells
Briefly: flow cytometry, peptide-loaded T2 cells.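 Also: binding of single-chain Fv antibody constructs, raised in XenoMouse, to peptide-pulsed T2 cells measured by flow cytometry.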
Method: as §1
B1 returned a Signal/background of 1.
On to B2, for which the Signal/background is 1.1.
Same read-out and setting: as for B3, the figure is 1; as for B4, 1.1; as for B5, 1.1.
As to B6, the Signal/background was found to be 1.1.
Turning to B7, the Signal/background stood at 1.1.
In turn, B8 showed a Signal/background of 1.
In the case of B9, the Signal/background worked out at 1.
Molecule B10 gave a Signal/background of 0.9.
Same read-out and setting: next, B11: 1.1; B12: 1.1.

In the next experiment the target is T4, COX14 peptide complexed with HLA-A*02:01 on T2 cells (human).
T4 construct: whole, on cells
Briefly: flow cytometry, peptide-loaded T2 cells.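 Also: binding of single-chain Fv antibody constructs, raised in XenoMouse, to peptide-pulsed T2 cells measured by flow cytometry.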
Method: as §1
In turn, B1 gave a Signal/background of 0.9.
Regarding B2, the Signal/background was 1.
Same read-out and setting: as for B3, the figure is 0.9; as for B4, 1.1; as for B5, 0.9.
B6 yielded a Signal/background of 0.9.
In turn, B7 came in with a Signal/background of 1.1.
On to B8, for which the Signal/background turned out to be 1.
In turn, B9 registered a Signal/background of 0.9.
The molecule B10 returned a Signal/background of 1.
As to B11, the Signal/background was 0.9.
B12 showed a Signal/background of 1.2.

The next experiment concerns the target T5, KEA peptide complexed with HLA-A*02:01 on T2 cells (human).
T5 construct: whole, on cells
The experiment in a line: flow cytometry, peptide-loaded T2 cells.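 Also: binding of single-chain Fv antibody constructs, raised in XenoMouse, to peptide-pulsed T2 cells measured by flow cytometry.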
Method: as §1
As to B1, the Signal/background turned out to be 0.9.
In turn, B2 returned a Signal/background of 1.
Consider B3, for which the Signal/background came to 0.9.
The molecule B4 registered a Signal/background of 1.
Regarding B5, the Signal/background was found to be 1.
With B6, the Signal/background stood at 1.
In turn, B7 displayed a Signal/background of 0.9.
Consider B8, for which the Signal/background was found to be 0.9.
The same measure, in the same setting: as for B9, the figure is 1; as for B10, 1; as for B11, 0.9.
B12 returned a Signal/background of 1.1.

Another experiment deals with T6, MAGEB2 peptide … (SEQ ID NO: 1) complexed with HLA-A*02:01 on the cell surface (human).
T6 construct: whole, on cells; also called pMAGE-HLA; MAGEB2 pMHC
The experiment in a line: flow cytometry, peptide-loaded T2 cells.
Method: as §1
The molecule B1 returned a Signal/background of 179.
As to B2, the Signal/background was 121.
For B3, the Signal/background came out at 140.
On the same count and under the same terms, as for B4, the figure is 103; as for B5, 318; as for B6, 419.
Molecule B7 registered a Signal/background of 443.
In turn, B8 came in with a Signal/background of 489.
Take B9: the Signal/background was found to be 232.
For the molecule B10, the Signal/background is 399.
Turning to B11, the Signal/background was found to be 430.
As for B12, the Signal/background worked out at 219.

The next experiment deals with T7, STXBP5 peptide complexed with HLA-A*02:01 on T2 cells (human).
T7 construct: whole, on cells
Briefly: flow cytometry, peptide-loaded T2 cells.
Method: as §1
Take B1: the Signal/background worked out at 0.9.
Molecule B2 gave a Signal/background of 1.
B3: the Signal/background was 1.1.
The molecule B4 had a Signal/background of 1.1.
B5 registered a Signal/background of 1.
On the same count and under the same terms, as for B6, the figure is 1; as for B7, 1; as for B8, 1.
In turn, B9 yielded a Signal/background of 1.2.
Same read-out and setting: next, B10: 1.
In the case of B11, the Signal/background was 1.
The molecule B12 yielded a Signal/background of 1.1.

A further experiment addresses T8, ADF peptide complexed with HLA-A*02:01 on T2 cells (human).
T8 construct: whole, on cells
Briefly: flow cytometry, peptide-loaded T2 cells.
Method: as §1
With B1, the Signal/background turned out to be 1.
Turning to B2, the Signal/background came out at 1.
Turning to B3, the Signal/background was found to be 1.
B4: the Signal/background amounted to 1.1.
Same read-out and setting: as for B5, the figure is 1; as for B6, 0.9.
On the same count and under the same terms, as for B7, the figure is 1.1; as for B8, 1.
Still for that read-out and setting: next, B9: 1.
For B10, the Signal/background was determined as 1.1.
For the molecule B11, the Signal/background stood at 1.
On the same count and under the same terms, as for B12, the figure is 1.1.

A further experiment concerns the target T9, MB peptide complexed with HLA-A*02:01 on T2 cells (human).
T9 construct: whole, on cells
Briefly: flow cytometry, peptide-loaded T2 cells.
Method: as §1
B1 had a Signal/background of 0.9.
For B2, the Signal/background was 1.
For the molecule B3, the Signal/background was determined as 1.
B4 returned a Signal/background of 1.
Same read-out and setting: as for B5, the figure is 1.1.
B6 showed a Signal/background of 1.
With B7, the Signal/background amounted to 1.
B8 displayed a Signal/background of 0.9.
Molecule B9 returned a Signal/background of 0.9.
Consider B10, for which the Signal/background came out at 1.
B11 came in with a Signal/background of 1.
Take B12: the Signal/background turned out to be 1.2.

The next experiment addresses T10, CNDP2 peptide complexed with HLA-A*02:01 on T2 cells (human).
T10 construct: whole, on cells; also called CNPD2
Briefly: flow cytometry, peptide-loaded T2 cells.
Method: as §1
In turn, B1 showed a Signal/background of 1.
With B2, the Signal/background was 1.1.
On the same count and under the same terms, as for B3, the figure is 1; as for B4, 1; as for B5, 1.
Consider B6, for which the Signal/background is 1.
Same read-out and setting: next, B7: 1.1; B8: 1.
Consider B9, for which the Signal/background is 1.1.
The molecule B10 displayed a Signal/background of 1.
Molecule B11 had a Signal/background of 1.
As for B12, the Signal/background amounted to 1.
